The source of these data is patent US20080058263A1 (published 2008).

What all share (assay): receptor-Fc IP
In one assay the target is T1, VEGFR-3-Fc (UniProt P35916 25-328).
T1 construct: domain: first three Ig domains; conditioned supernatant of 293T cells; also called VEGFR-3-Fc fusion protein; not shown: Fc fragment of the pIg vector
T1 sequence (looked up): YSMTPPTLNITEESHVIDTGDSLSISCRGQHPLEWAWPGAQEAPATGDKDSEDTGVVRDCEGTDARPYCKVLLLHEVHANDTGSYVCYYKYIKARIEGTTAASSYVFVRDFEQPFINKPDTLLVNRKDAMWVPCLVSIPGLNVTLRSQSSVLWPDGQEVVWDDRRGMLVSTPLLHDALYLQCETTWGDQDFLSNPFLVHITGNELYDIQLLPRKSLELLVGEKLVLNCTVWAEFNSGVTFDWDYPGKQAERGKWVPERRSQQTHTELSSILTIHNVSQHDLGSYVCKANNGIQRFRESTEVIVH
The method, boiled down: (§1)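 Binding of ligand from sample supernatant measured by pentahistidine-antibody immunoprecipitation. IP mix: PBS with 1.5% BSA, 0.06% Tween 20, 3 μg/ml heparin and 400 ng/ml fusion protein, added 1:2 to sample supernatant.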

Another assay concerns the target T2, VEGFR-1-Fc (UniProt P17948 27-338).
T2 construct: domain: first three Ig domains; expressed in Drosophila S2 cells, purified on Protein A sepharose; also called VEGFR-1-Fc fusion protein; not shown: Fc fragment from the Signal-pIgPlus vector
Summed up:
as §1

For a further assay, the target named is T3, VEGFR-2-Fc (UniProt P35968 20-322).
T3 construct: domain: first 3 Ig domains; conditioned supernatant of 293T cells; also called VEGFR-2-Fc fusion protein; not shown: Fc fragment of the pIg vector
The method, boiled down: as §1

T2 sequence (P17948 27-338): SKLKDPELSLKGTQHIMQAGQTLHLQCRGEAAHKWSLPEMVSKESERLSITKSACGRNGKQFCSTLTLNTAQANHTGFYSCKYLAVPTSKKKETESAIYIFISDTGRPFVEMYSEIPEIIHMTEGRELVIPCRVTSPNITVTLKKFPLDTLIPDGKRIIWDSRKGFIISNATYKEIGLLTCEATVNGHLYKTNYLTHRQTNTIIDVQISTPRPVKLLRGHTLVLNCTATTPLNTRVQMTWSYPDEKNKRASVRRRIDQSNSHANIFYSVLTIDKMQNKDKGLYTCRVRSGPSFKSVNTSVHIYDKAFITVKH
T3 sequence (P35968 20-322): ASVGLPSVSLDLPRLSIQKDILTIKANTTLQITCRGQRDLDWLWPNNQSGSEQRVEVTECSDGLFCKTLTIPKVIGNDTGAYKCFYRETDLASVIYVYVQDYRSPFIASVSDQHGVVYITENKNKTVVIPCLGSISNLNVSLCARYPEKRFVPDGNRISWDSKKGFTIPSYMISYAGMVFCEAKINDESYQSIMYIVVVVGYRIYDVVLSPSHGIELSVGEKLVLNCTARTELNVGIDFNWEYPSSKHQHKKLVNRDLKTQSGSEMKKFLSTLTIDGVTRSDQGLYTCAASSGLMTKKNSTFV

B1: 82-5 (ligand)
chain: AHYNTEILKFMDVYQRSYCHPIETLVDIFQEFGVATNTFFKPPCVSVYRCGGCCNDEGLECVPTEESNITMQIMRIKPHQGQHIGEMSFANHTSCRCMSKLD
With B1, the binding result in the assay with VEGFR-3-Fc is on record as “no binding”; in the assay with VEGFR-1-Fc, “binds”; with VEGFR-2-Fc, “no binding”.

B2: 74-8 (ligand)
chain: GQNHHEVVKSIDNEWRKTQCMPREVCIDVGKEFGVATNTFFKPSCVPLMRCGGCCNSEGLQCMNTSTSYLSKTLFEIKPHQGQHIGEMSFANHTSCRCMSKLD
With B2, the binding result in the assay with VEGFR-3-Fc is on record as “no binding”; in the assay with VEGFR-1-Fc, “no binding”; with VEGFR-2-Fc, “binds”.

B3: 74-10 (ligand)
chain: GQNHHEVVKSIDNEWRKTQCMPREVCIDVGKEFGVATNTFFKPSCVPLMRCGGCCNDEGLECMNTSTSYLSKTLFEITVPLSQGPKPVTISFLQHNKCECRPKKD
For B3, the binding result with VEGFR-3-Fc is recorded as “no binding”; with VEGFR-1-Fc, “no binding”; in the assay with VEGFR-2-Fc it was “binds”.

B4: 74-12 (ligand)
chain: GQNHHEVVKSIDNEWRKTQCMPREVCIDVGKEFGVATNTFFKPSCVPLMRCGGCCNSEGLQCMNTSTSYLSKTLFEITVPLSQGPKPVTISFLQHNKCECRPKKD
Take B4: the binding result with VEGFR-3-Fc is listed as “no binding”; with VEGFR-1-Fc, “no binding”; with VEGFR-2-Fc it was “binds”.

B5: 82-14 (ligand)
chain: AHYNTEILKFMDVYQRSYCHPIETLVDIFQEFGVATNTFFKPPCVSVYRCGGCCNDEGLECMNTSTSYLSKTLFEITVPLSQGPKPVTISFANHTSCRCMSKLD
Regarding B5, the binding result with VEGFR-3-Fc was “binds”; with VEGFR-1-Fc, “no binding”; with VEGFR-2-Fc it was “no binding”.

B6: 82-16 (ligand)
chain: AHYNTEILKFMDVYQRSYCHPIETLVDIFQEFGVATNTFFKPPCVSVYRCGGCCNSEGLQCMNTSTSYLSKTLFEITVPLSQGPKPVTISFANHTSCRCMSKLD
As for B6, the binding result with VEGFR-3-Fc was “binds”; with VEGFR-1-Fc, “no binding”; with VEGFR-2-Fc, “no binding”.

B7: 82-9 (ligand)
chain: AHYNTEILKFMDVYQRSYCHPIETLVDIFQEFGVATNTFFKPPCVSVYRCGGCCNDEGLECVPTEESNITMQIMRITVPLSQGPKPVTISFLQHNKCECRPKKDL
notes: clone entry
For the molecule B7, the binding result in the assay with VEGFR-3-Fc, with VEGFR-1-Fc and with VEGFR-2-Fc was “binds” in each case.

B8: 14-9 (ligand)
chain: GQNHHEVVKFMDVYQRSYCHPIETLVDIFQEFGVATNTFFKPSCVPLMRCGGCCNDEGLECVPTEESNITMQIMRITVPLSQGPKPVTISFLQHNKCECRPKKDL
notes: clone entry
On to B8, for which the binding result with VEGFR-3-Fc, with VEGFR-1-Fc and with VEGFR-2-Fc was “binds” each time.

B9: 84-11 (ligand)
chain: AHYNTEILKFMDVYQRSYCHPIETLVDIFQEFGVATNTFFKPSCVPLMRCGGCCNSEGLQCVPTEESNITMQIMRITVPLSQGPKPVTISFLQHNKCECRPKKDL
notes: clone entry
With B9, the binding result with VEGFR-3-Fc, with VEGFR-1-Fc and with VEGFR-2-Fc was “binds” in each case.

B10: 82-13 (ligand)
chain: AHYNTEILKFMDVYQRSYCHPIETLVDIFQEFGVATNTFFKPPCVSVYRCGGCCNDEGLECVPTEESNITMQIMRITVPLSQGPKPVTISFANHTSCRCMSKLDL
notes: clone entry
As for B10, the binding result with VEGFR-3-Fc is reported as “binds”; with VEGFR-1-Fc, “binds”; with VEGFR-2-Fc it was “no binding”.

B11: 84-9 (ligand)
chain: AHYNTEILKFMDVYQRSYCHPIETLVDIFQEFGVATNTFFKPSCVPLMRCGGCCNDEGLECVPTEESNITMQIMRITVPLSQGPKPVTISFLQHNKCECRPKKDL
notes: clone entry
B11: the binding result with VEGFR-3-Fc, in the assay with VEGFR-1-Fc and with VEGFR-2-Fc was “binds” in each case.

B12: 82-11 (ligand)
chain: AHYNTEILKFMDVYQRSYCHPIETLVDIFQEFGVATNTFFKPPCVSVYRCGGCCNSEGLQCVPTEESNITMQIMRITVPLSQGPKPVTISFLQHNKCECRPKKDL
notes: clone entry
For the molecule B12, the binding result in the assay with VEGFR-3-Fc, in the assay with VEGFR-1-Fc and with VEGFR-2-Fc was “binds” throughout.

B13: 84-1 (ligand)
chain: AHYNTEILKFMDVYQRSYCHPIETLVDIFQEFGVATNTFFKPSCVPLMRCGGCCNDEGLECVPTEESNITMQIMRIKPHQGQHIGEMSFLQHNKCECRPKKD
As for B13, the binding result is given as “no binding” with VEGFR-3-Fc, “binds” in the assay with VEGFR-1-Fc and “no binding” with VEGFR-2-Fc.

B14: 12-5 (ligand)
chain: GQNHHEVVKFMDVYQRSYCHPIETLVDIFQEFGVATNTFFKPPCVSVYRCGGCCNDEGLECVPTEESNITMQIMRIKPHQGQHIGEMSFANHTSCRCMSKLDLVF
With B14, the binding result in the assay with VEGFR-3-Fc is reported as “no binding”; with VEGFR-1-Fc, “binds”; in the assay with VEGFR-2-Fc it was “no binding”.

B15: 82-7 (ligand)
chain: AHYNTEILKFMDVYQRSYCHPIETLVDIFQEFGVATNTFFKPPCVSVYRCGGCCNSEGLQCVPTEESNITMQIMRIKPHQGQHIGEMSFANHTSCRCMSKLDLVF
notes: clone entry
In the case of B15, the binding result with VEGFR-3-Fc, with VEGFR-1-Fc and with VEGFR-2-Fc was “binds” each time.

B16: 12-1 (ligand)
chain: GQNHHEVVKFMDVYQRSYCHPIETLVDIFQEFGVATNTFFKPPCVSVYRCGGCCNDEGLECVPTEESNITMQIMRIKPHQGQHIGEMSFLQHNKCECRPKKDLVF
B16: the binding result in the assay with VEGFR-3-Fc, in the assay with VEGFR-1-Fc and with VEGFR-2-Fc was “binds” each time.

B17: 22-16 (ligand)
chain: AHYNTEILKSIDNEWRKTQCMPREVCIDVGKEFGVATNTFFKPPCVSVYRCGGCCNSEGLQCMNTSTSYLSKTLFEITVPLSQGPKPVTISFANHTSCRCMSKLDLVFEQKLISEEDLNSAVDHHHHHH
Take B17: the results for the binding result with VEGFR-3-Fc, with VEGFR-1-Fc and in the assay with VEGFR-2-Fc were “binds”, “no binding” and “binds”, respectively.

B18: 82-15 (ligand)
chain: AHYNTEILKFMDVYQRSYCHPIETLVDIFQEFGVATNTFFKPPCVSVYRCGGCCNSEGLQCVPTEESNITMQIMRITVPLSQGPKPVTISFANHTSCRCMSKLD
Consider B18, for which the binding result with VEGFR-3-Fc is listed as “binds”; with VEGFR-1-Fc it was “no binding”; in the assay with VEGFR-2-Fc, “binds”.
